Measured values taken from patent publication US20250346885A1, “SYSTEMS AND METHODS FOR TARGETED CONTINUOUS GENOME MUTAGENESIS” (The Broad Institute, Inc., priority 2023, published 2025).

Experiments:
[1] = tested on: double-stranded DNA; conditions: average base pairs unwound in a single binding event; cited from earlier work
[2] = tested on: HEK3, TNF, and IL6 loci; experiment: HACE editing rate and range with helicase and nickase variants (1000 bp window, local rate in 100 bp bins); type: cell-based, human; conditions: nCas9 D10A versus nCas9 H840A
Description: In one embodiment, HACE constructs were tested with different helicase enzymes.
The editing range of different HE constructs was then characterized. For each helicase, nickase, and loci combination, the respective HE, nCas9, and sgRNA combination was transfected into HEK293FT cells, genomic DNA was harvested after three days, and then a 1000 bp window was amplified by PCR for sequencing. The target-strand and non-target strand nickase had similar long range editing performance (FIG. 5C-D, FIG. 10B-C). […] Thus, the nCas9 binding and DNA-sgRNA duplex might obstruct the helicase loading on the non-nicked single-stranded DNA.
In another embodiment, the local average mutation rate was calculated in 100 bp bins for each genomic loci (FIG. 10D). […]
For long amplicon (˜2000 bp) sequencing, the targeted region was amplified using Phusion U Hot Start PCR master mix in a 20 μL reaction. […] The concentration of each sample was measured by Qubit (Thermo Fisher Scientific). […] Sequencing was performed on a NextSeq (Illumina) with paired-end reads (read1,100 bp; index1, 8 bp; index2, 8 bp; read2, 100 bp).
To calculate the mutation rate, it was filtered for base positions with a sequencing coverage of at least 10,000. […] The average G>A editing rate was calculated by extracting all positions where “G” was the reference base, then taking the average of the per base G>A editing rate. […]

[3] = tested on: HEK293FT cells; experiment: CellTiter-Glo cell viability after transfection of HACE constructs; type: cell-based, human
Description: The effects of different HACE constructs on cell viability were then quantified. To do so, the cell viability was quantified using a luciferase-based ATP-assay (CellTiter-Glo) across various helicase constructs both with and without deaminase along with a loci-targeting sgRNA and nCas9 (FIG. 11A).
Cell viability was measured using the CellTiter-Glo Luminescent Cell Viability Assay (Promega) following the manufacturer's protocols. Briefly, HEK293FT cells were seeded at a density of 10,000 cells per 100 μL per well in a 96-well plate in biological triplicates. The following day, cells were transfected with respective HACE plasmids according to the above protocol. Cell viability was measured 72 h after transfection. Luminescence readings were performed using a SpectraMax M5 (Molecular Devices) plate reader.

[4] = tested on: HEK3 locus; experiment: HACE editing assay at the HEK3 locus, amplicon sequencing; type: cell-based, human; conditions: HEK293FT cells, HEs with and without UGI fusion
Description: An example HACE Editor (HE) protein was constructed by fusing a hyperactive mutant of activation-induced cytidine deaminase (AID*Δ) with a Geobacillus stearothermophilus PcrA helicase that was previously optimized for processivity (PcrA M6). […] After the nCas9 creates a nick, the HE may load at the nick, start unwinding the DNA, and generate random mutations in the process.
Separate plasmids expressing HE, nCas9, and a sgRNA targeting the HEK3 locus were transfected into HEK293FT cells. Cells were collected 72 hours after transfection, and editing rates were evaluated by amplicon sequencing. […] A strand bias with G>A substitutions occurring at a higher rate than C>T substitutions was detected, which likely reflects preferential repair of mismatches on the nicked strand. […]
For short amplicon (˜300 bp) sequencing for HEK293T and A375 cells, the target region was amplified from genomic DNA samples using Phusion U Hot Start PCR master mix (ThermoFisher Scientific, F562) in a 20 μL reaction. […] Amplicons were pooled and prepared for sequencing on a NextSeq (Illumina) with paired-end reads (read1, 160 bp; index1, 8 bp; index2, 8 bp; read2, 160 bp). Reads were demultiplexed and analyzed with appropriate pipelines. […]
Raw fastq reads obtained from sequencing were quality trimmed using BBduk(1) (BBMap v38.93) with the options “qtrim=r1 trimq=28 maq=25”. […]

Molecule	processivity range [1]	preference of target and non-target strand nickase [2]	cell viability (CellTiter-Glo) [3]	effect of UGI fusion on editing levels for AID [4]
BLM: human helicase; in b329, b331 and b335 the HE constructed with it	over 200 base pairs	prefer both nickase variants equally	did not result in a significant decrease in cell viability	–
Sgs1: helicase with short-range processivity (protein, UniProt P35187 1-1447, looked up) ATP-dependent helicase SGS1: MVTKPSHNLRREHKWLKETATLQEDKDFVFQAIQKHIANKRPKTNSPPTTPSKDECGPGTTNFITSIPASGPTNTATKQHEVMQTLSNDTEWLSYTATSNQYADVPMVDIPASTSVVSNPRTPNGSKTHNFNTFRPHMASSLVENDSSRNLGSRNNNKSVIDNSSIGKQLENDIKLEVIRLQGSLIMALKEQSKLLLQKCSIIESTSLSEDAKRLQLSRDIRPQLSNMSIRIDSLEKEIIKAKKDGMSKDQSKGRSQVSSQDDNIISSILPSPLEYNTSSRNSNLTSTTATTVTKALAITGAKQNITNNTGKNSNNDSNNDDLIQVLDDEDDIDCDPPVILKEGAPHSPAFPHLHMTSEEQDELTRRRNMRSREPVNYRIPDRDDPFDYVMGKSLRDDYPDVEREEDELTMEAEDDAHSSYMTTRDEEKEENELLNQSDFDFVVNDDLDPTQDTDYHDNMDVSANIQESSQEGDTRSTITLSQNKNVQVILSSPTAQSVPSNGQNQIGVEHIDLLEDDLEKDAILDDSMSFSFGRQHMPMSHSDLELIDSEKENEDFEEDNNNNGIEYLSDSDLERFDEERENRTQVADIQELDNDLKIITERKLTGDNEHPPPSWSPKIKREKSSVSQKDEEDDFDDDFSLSDIVSKSNLSSKTNGPTYPWSDEVLYRLHEVFKLPGFRPNQLEAVNATLQGKDVFVLMPTGGGKSLCYQLPAVVKSGKTHGTTIVISPLISLMQDQVEHLLNKNIKASMFSSRGTAEQRRQTFNLFINGLLDLVYISPEMISASEQCKRAISRLYADGKLARIVVDEAHCVSNWGHDFRPDYKELKFFKREYPDIPMIALTATASEQVRMDIIHNLELKEPVFLKQSFNRTNLYYEVNKKTKNTIFEICDAVKSRFKNQTGIIYCHSKKSCEQTSAQMQRNGIKCAYYHAGMEPDERLSVQKAWQADEIQVICATVAFGMGIDKPDVRFVYHFTVPRTLEGYYQETGRAGRDGNYSYCITYFSFRDIRTMQTMIQKDKNLDRENKEKHLNKLQQVMAYCDNVTDCRRKLVLSYFNEDFDSKLCHKNCDNCRNSANVINEERDVTEPAKKIVKLVESIQNERVTIIYCQDVFKGSRSSKIVQANHDTLEEHGIGKSMQKSEIERIFFHLITIRVLQEYSIMNNSGFASSYVKVGPNAKKLLTGKMEIKMQFTISAPNSRPSTSSSFQANEDNIPVIAQKSTTIGGNVAANPPRFISAKEHLRSYTYGGSTMGSSHPITLKNTSDLRSTQELNNLRMTYERLRELSLNLGNRMVPPVGNFMPDSILKKMAAILPMNDSAFATLGTVEDKYRRRFKYFKATIADLSKKRSSEDHEKYDTILNDEFVNRAAASSNGIAQSTGTKSKFFGANLNEAKENEQIINQIRQSQLPKNTTSSKSGTRSISKSSKKSANGRRGFRNYRGHYRGRK	about 100 base pairs	–	–	–
UGI: uracil DNA glycosylase inhibitor fused to the HACE editor (protein, UniProt P14739 1-84, looked up, fused to HACE editor) Uracil-DNA glycosylase …: MTNLSDIIEKETGKQLVIQESILMLPEEVEEVIGNKPESDILVHTAYDESTDENVMLLTSDAPEYKPWALVIQDSNGENKIKML	–	–	–	significantly elevated the editing levels
